# In IntAct's records for PubMed 31515488:
# B1: TBC1 domain family member 7 (Homo sapiens), Q9P0N9 (parent)
# chain: MTEDSQRNFRSVYYEKVGFRGVEEKKSLEILLKDDRLDTEKLCTFSQRFPLPSMYRALVWKVLLGILPPHHESHAKVMMYRKEQYLDVLHALKVVRFVSDATPQAEVYLRMYQLESGKLPRSPSFPLEPDDEVFLAIAKAMEEMVEDSVDCYWITRRFVNQLNTKYRDSLPQLPKAFEQYLNLEDGRLLTHLRMCSAAPKLPYDLWFKRCFAGCLPESSLQRVWDKVVSGSCKILVFVAVEILLTFKIKVMALNSAEKITKFLENIPQDSSDAIVSKAIDLWHKHCGTPVHSS
# partner: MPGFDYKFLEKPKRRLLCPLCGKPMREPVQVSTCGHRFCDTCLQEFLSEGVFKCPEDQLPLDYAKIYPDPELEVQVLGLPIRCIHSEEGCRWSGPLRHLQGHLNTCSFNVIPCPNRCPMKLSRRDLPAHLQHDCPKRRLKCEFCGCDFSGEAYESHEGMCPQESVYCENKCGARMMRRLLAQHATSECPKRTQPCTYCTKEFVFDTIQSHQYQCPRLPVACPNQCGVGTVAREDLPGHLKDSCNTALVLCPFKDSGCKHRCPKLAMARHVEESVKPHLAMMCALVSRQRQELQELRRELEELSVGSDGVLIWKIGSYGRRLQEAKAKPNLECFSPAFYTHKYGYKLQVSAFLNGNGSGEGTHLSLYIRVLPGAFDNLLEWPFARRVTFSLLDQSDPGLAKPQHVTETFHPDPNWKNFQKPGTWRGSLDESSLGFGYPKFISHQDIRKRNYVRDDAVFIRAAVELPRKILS
# B2: GRIP and coiled-coil domain-containing protein 1 (Homo sapiens), Q96CN9 (parent)
# chain: MEKFGMNFGGGPSKKDLLETIETQKKQLLQYQARLKDVVRAYKSLLKEKEALEASIKVLSVSHEADVGLAGVQLPGLTFPDSVDDRCSTHSEDSTGTATSLDTAASLTSTKGEFGVEDDRPARGPPPPKSEEASWSESGVSSSSGDGPFAGGEVDKRLHQLKTQLATLTSSLATVTQEKSRMEASYLADKKKMKQDLEDASNKAEEERARLEGELKGLQEQIAETKARLITQQHDRAQEQSDHALMLRELQKLLQEERTQRQDLELRLEETREALAGRAYAAEQMEGFELQTKQLTREVEELKSELQAIRDEKNQPDPRLQELQEEAARLKSHFQAQLQQEMRKTALAEDQLRQQSQVEEQRVAALENQISEVSELLGTYEKAKQKDQLAIQKLKERILQLDLENKTLALAASSRSPLDSHGEESSLDVNVLKDKMEKLKRLLQVAARKSQVTLDVEKLCDLEIMPSSEAADGEKATALYYQQELKQLKEEFERYKMRAQVVLKSKNTKDGNLGKELEAAQEQLAELKEKYISLRLSCEELEHQHQQEADDWKQELARLQQLHRQELERCQLDFRDRTLKLEEELHKQRDRALAVLTEKDLELEQLRSVALASGLPGRRSPVGGGGPGDPADTSSSDSLTQALQLAAANEPTFFLYAEQLARKEVEITSLRKQKHRLEVEVHQLQDRLLEEGERHREEVAALQSHIEKNIRDQSREGANLEYLKNIIYRFLTLPDSLGRQQTLTAILTILHFSPEEKQVIMRLPTSASWWPSGKR
# partner: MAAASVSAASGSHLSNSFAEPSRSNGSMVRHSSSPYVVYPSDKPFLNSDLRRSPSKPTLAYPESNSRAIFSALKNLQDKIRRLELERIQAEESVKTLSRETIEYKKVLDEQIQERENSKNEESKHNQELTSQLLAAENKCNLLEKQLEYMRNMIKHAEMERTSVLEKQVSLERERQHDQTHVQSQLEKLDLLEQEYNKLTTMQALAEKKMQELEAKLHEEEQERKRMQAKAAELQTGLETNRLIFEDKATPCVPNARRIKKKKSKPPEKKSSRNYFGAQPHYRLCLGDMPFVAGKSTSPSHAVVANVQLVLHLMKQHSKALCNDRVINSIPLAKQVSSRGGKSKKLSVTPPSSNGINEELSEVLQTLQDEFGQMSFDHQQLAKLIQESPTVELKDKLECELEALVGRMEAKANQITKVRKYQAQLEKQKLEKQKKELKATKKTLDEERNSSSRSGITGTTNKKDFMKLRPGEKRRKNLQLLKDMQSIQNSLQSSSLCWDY
# B3: Sodium channel modifier 1 (Homo sapiens), Q9BWG6 (parent)
# chain: MSFKREGDDWSQLNVLKKRRVGDLLASYIPEDEALMLRDGRFACAICPHRPVLDTLAMLTAHRAGKKHLSSLQLFYGKKQPGKERKQNPKHQNELRREETKAEAPLLTQTRLITQSALHRAPHYNSCCRRKYRPEAPGPSVSLSPMPPSEVKLQSGKISREPEPAAGPQAEESATVSAPAPMSPTRRRALDHYLTLRSSGWIPDGRGRWVKDENVEFDSDEEEPPDLPLD
# B4: Fas-activated serine/threonine kinase (Homo sapiens), Q14296-1 (parent)
# chain: MRRPRGEPGPRAPRPTEGATCAGPGESWSPSPNSMLRVLLSAQTSPARLSGLLLIPPVQPCCLGPSKWGDRPVGGGPSAGPVQGLQRLLEQAKSPGELLRWLGQNPSKVRAHHYSVALRRLGQLLGSRPRPPPVEQVTLQDLSQLIIRNCPSFDIHTIHVCLHLAVLLGFPSDGPLVCALEQERRLRLPPKPPPPLQPLLRGGQGLEAALSCPRFLRYPRQHLISSLAEARPEELTPHVMVLLAQHLARHRLREPQLLEAIAHFLVVQETQLSSKVVQKLVLPFGRLNYLPLEQQFMPCLERILAREAGVAPLATVNILMSLCQLRCLPFRALHFVFSPGFINYISGTPHALIVRRYLSLLDTAVELELPGYRGPRLPRRQQVPIFPQPLITDRARCKYSHKDIVAEGLRQLLGEEKYRQDLTVPPGYCTDFLLCASSSGAVLPVRTQDPFLPYPPRSCPQGQAASSATTRDPAQRVVLVLRERWHFCRDGRVLLGSRALRERHLGLMGYQLLPLPFEELESQRGLPQLKSYLRQKLQALGLRWGPEGG
# partner: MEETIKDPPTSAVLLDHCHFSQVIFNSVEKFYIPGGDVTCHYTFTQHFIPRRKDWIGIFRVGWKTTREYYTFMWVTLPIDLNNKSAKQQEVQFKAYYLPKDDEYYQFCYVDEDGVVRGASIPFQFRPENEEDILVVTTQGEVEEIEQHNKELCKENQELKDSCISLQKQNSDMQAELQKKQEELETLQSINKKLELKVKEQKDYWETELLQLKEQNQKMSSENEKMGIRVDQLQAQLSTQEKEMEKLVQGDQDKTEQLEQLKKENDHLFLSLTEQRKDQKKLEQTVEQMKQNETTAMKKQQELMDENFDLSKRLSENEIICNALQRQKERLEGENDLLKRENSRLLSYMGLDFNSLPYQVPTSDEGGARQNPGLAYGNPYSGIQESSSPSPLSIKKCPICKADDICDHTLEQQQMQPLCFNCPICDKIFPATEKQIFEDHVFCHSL
# B5: Vesicle transport protein SFT2B (Homo sapiens), O95562 (parent)
# chain: MDKLKKVLSGQDTEDRSGLSEVVEASSLSWSTRIKGFIACFAIGILCSLLGTVLLWVPRKGLHLFAVFYTFGNIASIGSTIFLMGPVKQLKRMFEPTRLIATIMVLLCFALTLCSAFWWHNKGLALIFCILQSLALTWYSLSFIPFARDAVKKCFAVCLA
# partner: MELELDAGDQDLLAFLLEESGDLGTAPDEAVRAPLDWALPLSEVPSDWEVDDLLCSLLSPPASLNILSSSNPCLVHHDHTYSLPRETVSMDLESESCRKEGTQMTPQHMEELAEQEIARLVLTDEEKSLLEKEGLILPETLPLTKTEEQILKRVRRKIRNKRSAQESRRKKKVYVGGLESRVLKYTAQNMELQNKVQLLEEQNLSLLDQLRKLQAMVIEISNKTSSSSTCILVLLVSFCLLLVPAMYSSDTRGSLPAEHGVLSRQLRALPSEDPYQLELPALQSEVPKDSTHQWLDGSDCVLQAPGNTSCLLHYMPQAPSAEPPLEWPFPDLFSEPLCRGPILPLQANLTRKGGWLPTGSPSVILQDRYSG
# B6: Isoform 1 of Nuclear RNA export factor 3 (Homo sapiens), Q9H4D5-1 (parent)
# chain: MSLPSGHTTGHTDQVVQRRARCWDIYQRRFSSRSEPVNPGMHSSSHQQQDGDAAMHGAHMDSPVRYTPYTISPYNRKGSFRKQDQTHVNMEREQKPPERRMEGNMPDGTLGSWFKITVPFGIKYNEKWLLNLIQNECSVPFVPVEFHYENMHASFFVENASIAYALKNVSGKIWDEDNEKISIFVNPAGIPHFVHRELKSEKVEQIKLAMNQQCDVSQEALDIQRLPFYPDMVNRDTKMASNPRKCMAASLDVHEENIPTVMSAGEMDKWKGIEPGEKCADRSPVCTTFSDTSSNINSILELFPKLLCLDGQQSPRATLCGTEAHKRLPTCKGSFFGSEMLKNLVLQFLQQYYLIYDSGDRQGLLSAYHDEACFSLSIPFNPEDSAPSSFCKFFKDSRNIKILKDPYLRGELLKHTKLDIVDSLSALPKTQHDLSSFLVDMWYQTEWMLCFSVNGVFKEVEGQSQGSVLAFTRTFIATPGSSSSLCIVNDKLFVRDTSHQGTQSALFTLVPTAFSSSVPAFSQEQQKMLPS
# partner: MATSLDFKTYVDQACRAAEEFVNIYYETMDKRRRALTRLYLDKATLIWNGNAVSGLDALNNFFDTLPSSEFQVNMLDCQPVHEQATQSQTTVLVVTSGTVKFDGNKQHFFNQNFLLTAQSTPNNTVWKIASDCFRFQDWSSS
# B7: Polymerase delta-interacting protein 3 (Homo sapiens), Q9BY77 (parent)
# chain: MADISLDELIRKRGAAAKGRLNARPGVGGVRSRVGIQQGLLSQSTRTATFQQRFDARQKIGLSDARLKLGVKDAREKLLQKDARFRIKGKVQDAREMLNSRKQQTTVPQKPRQVADAREKISLKRSSPAAFINPPIGTVTPALKLTKTIQVPQQKAMAPLHPHPAGMRINVVNNHQAKQNLYDLDEDDDGIASVPTKQMKFAASGGFLHHMAGLSSSKLSMSKALPLTKVVQNDAYTAPALPSSIRTKALTNMSRTLVNKEEPPKELPAAEPVLSPLEGTKMTVNNLHPRVTEEDIVELFCVCGALKRARLVHPGVAEVVFVKKDDAITAYKKYNNRCLDGQPMKCNLHMNGNVITSDQPILLRLSDSPSMKKESELPRRVNSASSSNPPAEVDPDTILKALFKSSGASVTTQPTEFKIKL
# partner: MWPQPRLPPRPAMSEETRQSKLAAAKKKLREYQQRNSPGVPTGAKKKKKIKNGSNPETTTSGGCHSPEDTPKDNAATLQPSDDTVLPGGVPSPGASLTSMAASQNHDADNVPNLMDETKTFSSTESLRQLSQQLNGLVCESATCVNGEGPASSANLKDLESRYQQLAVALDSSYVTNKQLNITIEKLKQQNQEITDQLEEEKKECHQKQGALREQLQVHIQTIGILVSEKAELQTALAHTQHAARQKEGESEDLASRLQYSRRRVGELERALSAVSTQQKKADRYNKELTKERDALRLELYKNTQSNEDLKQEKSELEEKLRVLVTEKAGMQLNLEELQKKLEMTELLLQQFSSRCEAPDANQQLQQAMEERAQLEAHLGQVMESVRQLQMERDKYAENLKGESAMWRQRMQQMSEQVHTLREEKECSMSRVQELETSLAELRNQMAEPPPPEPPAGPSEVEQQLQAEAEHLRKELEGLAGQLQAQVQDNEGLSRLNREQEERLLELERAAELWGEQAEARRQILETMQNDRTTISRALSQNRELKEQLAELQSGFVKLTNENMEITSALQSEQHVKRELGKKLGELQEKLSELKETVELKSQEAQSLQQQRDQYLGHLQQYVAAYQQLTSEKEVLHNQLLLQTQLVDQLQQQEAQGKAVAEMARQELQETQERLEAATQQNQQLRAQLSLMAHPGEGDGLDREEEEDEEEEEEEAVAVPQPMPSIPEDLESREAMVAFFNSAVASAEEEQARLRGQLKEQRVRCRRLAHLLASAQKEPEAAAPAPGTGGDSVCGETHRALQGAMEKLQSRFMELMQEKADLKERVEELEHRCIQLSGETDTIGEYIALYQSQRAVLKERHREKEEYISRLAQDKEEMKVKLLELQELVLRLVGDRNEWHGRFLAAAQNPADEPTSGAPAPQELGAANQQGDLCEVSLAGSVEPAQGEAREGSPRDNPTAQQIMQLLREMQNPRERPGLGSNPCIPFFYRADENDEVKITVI
# Variants of: B1
# Conditions: with traf4_human TRAF4, Q9BUZ4
row,Variant,effect of a mutation on the interaction
1,L67W,with no effect

# Variants of: B2
# Conditions: with cep57_human CEP57, Q86XR8
row,Variant,effect of a mutation on the interaction
1,A274T,with no effect

# Variants of: B3
# Conditions: with hm20a_human HMG20A
row,Variant,effect of a mutation on the interaction
1,R206P,with no effect

# Variants of: B3
# Conditions: with trim1_human MID2, Q9UJV3
# Sequence of trim1_human MID2, Q9UJV3 (Q9UJV3 whole entry): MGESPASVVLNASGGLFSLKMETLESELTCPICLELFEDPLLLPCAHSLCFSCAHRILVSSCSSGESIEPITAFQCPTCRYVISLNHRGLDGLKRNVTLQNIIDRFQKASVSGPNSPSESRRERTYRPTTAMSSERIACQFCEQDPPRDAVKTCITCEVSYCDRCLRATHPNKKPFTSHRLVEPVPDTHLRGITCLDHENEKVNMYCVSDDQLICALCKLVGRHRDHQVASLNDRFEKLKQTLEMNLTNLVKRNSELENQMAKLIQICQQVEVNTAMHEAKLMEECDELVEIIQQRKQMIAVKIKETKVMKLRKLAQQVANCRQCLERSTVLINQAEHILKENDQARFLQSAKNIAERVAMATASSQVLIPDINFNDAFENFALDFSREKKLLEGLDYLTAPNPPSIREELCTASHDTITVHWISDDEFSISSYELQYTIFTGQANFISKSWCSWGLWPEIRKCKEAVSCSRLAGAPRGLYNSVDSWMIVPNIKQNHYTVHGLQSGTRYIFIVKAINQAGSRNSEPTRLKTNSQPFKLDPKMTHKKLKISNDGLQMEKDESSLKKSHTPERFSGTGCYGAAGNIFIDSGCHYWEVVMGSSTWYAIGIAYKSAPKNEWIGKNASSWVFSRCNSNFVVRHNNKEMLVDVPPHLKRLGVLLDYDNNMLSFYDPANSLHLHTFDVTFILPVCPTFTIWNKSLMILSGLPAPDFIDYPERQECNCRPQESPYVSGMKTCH
row,Variant,effect of a mutation on the interaction
1,R206P,with no effect

# Variants of: B3
# Conditions: with pls1_human PLSCR1, O15162
# Sequence of pls1_human PLSCR1, O15162 (O15162 whole entry): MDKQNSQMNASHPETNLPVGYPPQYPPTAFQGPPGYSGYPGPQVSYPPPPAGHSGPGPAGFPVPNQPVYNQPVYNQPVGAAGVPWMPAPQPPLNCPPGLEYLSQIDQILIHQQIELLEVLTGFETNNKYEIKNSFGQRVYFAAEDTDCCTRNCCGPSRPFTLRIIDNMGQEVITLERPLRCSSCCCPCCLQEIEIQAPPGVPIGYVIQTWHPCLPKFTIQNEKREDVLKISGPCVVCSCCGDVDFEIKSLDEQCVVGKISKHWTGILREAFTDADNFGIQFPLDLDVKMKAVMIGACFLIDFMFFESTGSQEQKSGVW
row,Variant,effect of a mutation on the interaction
1,R206P,with no effect

# Variants of: B3
# Conditions: with inca1_human INCA1, Q0VD86
# Sequence of inca1_human INCA1, Q0VD86 (Q0VD86 whole entry): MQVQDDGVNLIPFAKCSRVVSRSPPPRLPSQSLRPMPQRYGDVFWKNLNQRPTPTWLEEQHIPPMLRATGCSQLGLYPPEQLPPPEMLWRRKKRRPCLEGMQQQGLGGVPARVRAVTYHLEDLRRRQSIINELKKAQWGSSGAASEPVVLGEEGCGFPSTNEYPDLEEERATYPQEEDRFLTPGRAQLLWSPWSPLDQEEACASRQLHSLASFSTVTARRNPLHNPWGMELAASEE
row,Variant,effect of a mutation on the interaction
1,R206P,with no effect

# Variants of: B4
# Conditions: with caco2_human CALCOCO2, Q13137
row,Variant,effect of a mutation on the interaction
1,V424L,with no effect

# Variants of: B5
# Conditions: with creb3_human CREB3, O43889
row,Variant,effect of a mutation on the interaction
1,T137M,with no effect

# Variants of: B6
# Conditions: with nxt2_human NXT2, Q9NPJ8
row,Variant,effect of a mutation on the interaction
1,T9K,with no effect

# Variants of: B6
# Conditions: with nxt2_human NXT2, Q9NPJ8
# Remark: another data set of the same source
row,Variant,effect of a mutation on the interaction
1,R409W,disrupting interaction strength

# Variants of: B7
# Conditions: with goga2_human GOLGA2, Q08379
row,Variant,effect of a mutation on the interaction
1,A15T,with no effect
2,A16V,with no effect
